From the supplement of paper PMC12042874 come the findings set out here.

± gives the uncertainty stated by the source.

The series is described as follows: amyloid nucleation score (Sup35N fusion, yeast selection) (log enrichment); library NNK3; higher = more nucleation; inactive = no reads after selection. The method, boiled down: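 Plasmid inserts were Illumina-sequenced at input and output from psi-negative yeast expressing Sup35N fused to peptides of 20 random codons. The yeast were induced with 100 μM copper sulfate for 24 hours and grown 7 days at 30°C on medium lacking adenine and uracil, and sequences with under 100 input reads were excluded. Nucleation score is the DiMSum log enrichment of output over input reads, centred on the mode score of non-aggregating sequences.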
Take TLFQDSLLYVSWRSES: the amyloid nucleation score amounted to 0.118 ± 0.34. As for IGYTRLLFLMDVTVGIRVGW, the entry is “inactive”; as for LPICDQTIWFLPSRAVAGNV, “inactive”.

For the substance KMKCRVIYVLSSLIYCM, the amyloid nucleation score result is “inactive”. The result for NRIVTVLMFCWLEG reads “inactive”; that for LLDVYLD, “inactive”; that for YISSVQGCPMEGGLPKSSAS, “inactive”. As for VSDRCFKSTWSLMFYMGVVV, the entry is “inactive”; as for SFMYVCNLLLSSWSCP, 1.83 ± 0.063. The result for LHTPIMRNYR reads “inactive”; that for RVDWRNGRVRRHLRHVLRIN, “inactive”; that for KDRSCNALWGLDCLYGNKGC, -0.197 ± 0.61. The substance QQKGHTYKLLYNGGRLYFPT came in with an amyloid nucleation score of 0.29 ± 0.51. As for KYWLMVWRFNYCMTYNGGLE, the entry is “inactive”; as for RPSFLVGRFMTVLKSPRHDV, -0.692 ± 1.4; as for CLIFVWATIDYNYFCLS, 0.6 ± 0.16. The result for AEVPEFTLYVSFYSWVYFRL reads “inactive”; that for CVSFNLVSWVFNYCS, 2.55 ± 0.056; that for LNFSHGSCGSFCGSIMIST, “inactive”.

Consider YDTHWTVCLLSTCLTL, for which the amyloid nucleation score result is “inactive”. For the substance CMVSYASDTGGKESELACVV, the amyloid nucleation score entry was “inactive”. As for TAMCQSLGPTATTLTGVSWG, the entry is “inactive”. In the case of LIARCKRAIAGGY, the amyloid nucleation score entry was “inactive”. With AMDRTNNIEDEQWIMNKYWV, the amyloid nucleation score result was “inactive”. As for NWAGRLWLTV, the entry is “inactive”; as for TLLRLHQVAY, “inactive”.

On to VTTSMCAIQD, for which the amyloid nucleation score entry was “inactive”. The result for IYDSRWTTNDSSCTTVFTEQ reads “inactive”.

On to SVTFSHVRTSRIRCGIMVYP, for which the amyloid nucleation score result was “inactive”. In the case of IGGRKALAALSVYHNVMRCL, the amyloid nucleation score entry was “inactive”. Turning to INCLDFYTTVYNTRSWIFVH, the amyloid nucleation score result was “inactive”. As for WSCESNDVHSCWWWLGGFNT, the entry is “inactive”; as for ARKMTIRPPLFPAWHSFELK, “inactive”; as for PLTFT, “inactive”. As for QYVVSGMTYFWRYMRLVNVR, the entry is “inactive”; as for LHVSTRFA, “inactive”. As for IIFIF, the figure is 1.3 ± 0.14; as for LFGSF, “inactive”; as for GGKHPGMCFHCEWLGYWFTS, “inactive”. Take RVRVNPSVHRRPRYGND: the amyloid nucleation score result was “inactive”.

Turning to RPAGLWVTMWIYPVLRSTYV, the amyloid nucleation score result is “inactive”.

Turning to YIEYIWWRLSSWLRSMKGLR, the amyloid nucleation score result is “inactive”. In the case of CYNGTLGCGYRVLIRVSGSW, the amyloid nucleation score entry is “inactive”.

As for VMVCFG, the amyloid nucleation score entry is “inactive”. As for LMRSREEGAPSDRRSQAYED, the entry is “inactive”. As for RLSLVFRHIAFTS, the entry is “inactive”.

On to FFKSLRV, for which the amyloid nucleation score entry is “inactive”. As for TVIRRLYCLNGLVANTSFAV, the entry is “inactive”. The result for SILLLDSEGSMNLEAIV reads “inactive”. On to RRQLLVGIP, for which the amyloid nucleation score result is “inactive”. The result for GHGSFE reads “inactive”; that for IKVWRGKVG, “inactive”; that for YYCCC, 1.63 ± 0.072. As for DMLHLWYLSVG, the amyloid nucleation score entry was “inactive”. On to FICVAIGTFCFIEMMHLIGR, for which the amyloid nucleation score turned out to be 1.23 ± 0.086. As for QSLHSYNRSESCSLGSSFWI, the entry is “inactive”; as for LNAEIL, “inactive”; as for MLCKYTCLICYGYRTKRSSE, 0.684 ± 0.17. Consider FLPPTVINVVHAYRRFSSDR, for which the amyloid nucleation score amounted to 1.71 ± 0.098. As for LILFPRKRHTGSM, the entry is “inactive”. For EHIEIRSSFEVSPHTPNPAS, the amyloid nucleation score result was “inactive”. DYVNRCI: the amyloid nucleation score result is “inactive”. For LFVIINPQVTWLLFRMFESH, the amyloid nucleation score result is “inactive”. The result for IRYSGFPYPSNLWHTSATLY reads “inactive”; that for TSTHCIIWLGRSDRRREMQL, -0.752 ± 1.9. In the case of LYAKF, the amyloid nucleation score entry was “inactive”.

Regarding VLFAKRLDLTCVFLFIGRVW, the amyloid nucleation score result is “inactive”. The result for SVNPAKHVMCKRAPGCGKLH reads “inactive”; that for AVYLGGGHKSCRRSRRWLVS, “inactive”. As for VIMFVAIGWLLR, the entry is “inactive”. The result for WGSLMFRVYTKMFEALERVL reads “inactive”; that for EQTLGYNLIRAWLSKCCWMT, “inactive”. For HYKVPWF, the amyloid nucleation score entry is “inactive”. As for RFNGVVQEIVFCWRYRFVGN, the figure is -0.631 ± 0.96; as for RISSIAEDSSRAGASEHPGQ, -0.57 ± 1.8. As for NGWYKVGLMA, the entry is “inactive”; as for LTYGFFESNFGGCNRFCF, “inactive”. As for SVGRQSLYDL, the figure is 0.285 ± 0.24; as for MILKNWNVSISRGSRFNSYV, “inactive”; as for FHVTVFWNRHNSDLMVLHR, “inactive”. For GREFRICNSFVWVSVFIFCG, the amyloid nucleation score result is “inactive”. As for TPFSCEYNIMWESRGGDWSR, the entry is “inactive”.

Consider IVGAAVRGKMRFSMSRAWLG, for which the amyloid nucleation score result is “inactive”. As for GTYLGELVTGLTPGRCPGHF, the entry is “inactive”. The result for FGMSQKSSRGWGLNV reads “inactive”. On to LYINVHLEEIIFSLALREK, for which the amyloid nucleation score was 1.71 ± 0.057.

On to RGTVSQFVMAVNWFTSFVKR, for which the amyloid nucleation score result was “inactive”.

With SESSS, the amyloid nucleation score entry was “inactive”. On to SISAALWAFL, for which the amyloid nucleation score result is “inactive”. As for NIFRMRNQVIRSVLNVHVMT, the entry is “inactive”; as for ISLKSLFVFHNLSVDIWVQR, “inactive”. The result for EFVEAYFSNGLSRLPLTHGM reads “inactive”; that for DQDKLFSEIRAMKFCCSFPP, “inactive”; that for TLSCDRKNCVVHCFLIQRFL, “inactive”. As for GGNSWITSMLAYWLTSAHNA, the entry is “inactive”; as for QDYSELRVSKKKVVRVG, “inactive”.

Substance FSAIRVLYSVKTELDSNNMY returned an amyloid nucleation score of 0.822 ± 0.24. As for NRSPLCLKC, the entry is “inactive”; as for SGPGRSACSFYNAIFMRRFQ, “inactive”; as for YWYTTCIWRVTSNCWVCISW, “inactive”. As for TFVVGRVITWKNQVCL, the entry is “inactive”.

DNFRVDLVNRLLFYRISHAA: the amyloid nucleation score result was “inactive”.

Regarding LHRSCAIAA, the amyloid nucleation score result is “inactive”. The result for CSYWTGYCCQIVGLKSFGLV reads 2.4 ± 0.083. Regarding WTLRFLVKGSRCQFVAP, the amyloid nucleation score result was “inactive”. The result for MPLTFTSRSSDVICLNVGSG reads -0.232 ± 0.62. On to SMQGDRWFLVL, for which the amyloid nucleation score entry is “inactive”. As for NNCRSLY, the figure is 0.927 ± 0.21; as for VRCKVMSSAAATVFFVSGAV, “inactive”; as for LQSRF, “inactive”. As for RCRLSKANFRHWNKEVKWTF, the entry is “inactive”. As for RNSKLSCNVDTKSCFVECMN, the entry is “inactive”. For HRWNMSWFGYFNLRLSVIET, the amyloid nucleation score entry is “inactive”.

Regarding LNCMQVYFICVTWFAC, the amyloid nucleation score result is “inactive”.

As to PLGDARLTSRRDPPYRTTPL, the amyloid nucleation score is 0.979 ± 0.17. As for HGMPMVAFITFVVNIRGLCD, the figure is 0.079 ± 0.81; as for YLYSCDSFCFLDPRYMRCPE, “inactive”; as for SCILCIFPVRLVFYMM, “inactive”. The result for NNDYADLRWGKSVGKASGWG reads “inactive”. As for EDAFWYYVEWPYKWLQGGHS, the entry is “inactive”; as for QVCPTLWYEVMCLN, “inactive”. VGWTVGYKW: the amyloid nucleation score entry is “inactive”.

Take SECRTRLWLRESYNFSPDVK: the amyloid nucleation score entry was “inactive”.

Regarding IFSVFLLTMLEQRQKAHSLM, the amyloid nucleation score entry was “inactive”.

Consider YVLRCVFSSDNKDGAWTTWI, for which the amyloid nucleation score result was “inactive”. For GNFSRLDSCFTVVRARVKCN, the amyloid nucleation score entry was “inactive”. The result for VRMQLMWCGP reads “inactive”. The result for LLCLVAKRYGMGRLF reads “inactive”. The result for SFNVTVRGLSSSN reads 0.027 ± 0.47; that for RYVGAVWYYTMNIVNYNSFI, 1.7 ± 0.06; that for MPFPVGNFHQGDNMNVSQCG, 0.61 ± 0.12. Turning to VTSVRPIYSRCLLNYMLRSV, the amyloid nucleation score entry was “inactive”.
